The text below walks through data of patent publication US20190060431A1 (IMMATICS BIOTECHNOLOGIES, published 2019).

Where no end group is shown, it is not given here. [ ]: non-standard residue; d: D form. pT = C[C@@H](OP(=O)(O)O)[C@H](N)C(=O)O A value given as a limit tells only on which side of the number the result lay.

In the first assay the target is T1, HLA-A*02:01 (human).
T1 construct: MHC class I monomer in the UV-ligand exchange assay, captured on streptavidin plates; also called peptide-receptive MHC molecules
Nature of the assay: UV-ligand exchange, anti-β2m ELISA; grade of peptide exchange yield (legend: ≥75% = ++++). From the text: (§1) Candidate peptides for T cell based therapies according to the present invention were further tested for their MHC binding capacity (affinity). The individual peptide-MHC complexes were produced by UV-ligand exchange, where a UV-sensitive peptide is cleaved upon UV-irradiation, and exchanged with the peptide of interest as analyzed. Only peptide candidates that can effectively bind and stabilize the peptide-receptive MHC molecules prevent dissociation of the MHC complexes. To determine the yield of the exchange reaction, an ELISA was performed based on the detection of the light chain (β2m) of stabilized MHC complexes. The assay was performed as generally described in Rodenko et al. (Rodenko et al., 2006).
(§2) 96 well MAXISorp plates (NUNC) were coated over night with 2 ug/ml streptavidin in PBS at room temperature, washed 4× and blocked for 1 h at 37° C. in 2% BSA containing blocking buffer. Refolded HLA-A*02:01/MLA-001 monomers served as standards, cov-ering the range of 15-500 ng/ml. Peptide-MHC monomers of the UV-exchange reaction were diluted 100-fold in blocking buffer. Samples were incubated for 1 h at 37° C., washed four times, incubated with 2 ug/ml HRP conjugated anti-β2m for 1 h at 37° C., washed again and detected with TMB solution that is stopped with NH2SO4. Absorp-tion was measured at 450 nm. Candidate peptides that show a high exchange yield (preferably higher than 50%, most preferred higher than 75%) are generally preferred for a generation and production of antibodies or fragments thereof, and/or T cell receptors or fragments thereof, as they show sufficient avidity to the MHC molecules and prevent dissociation of the MHC complexes.
With SLFSVPFFL [SLFSVPFFL (SEQ ID NO: 28, TM9SF1)], the peptide exchange yield was at least 75%.

SMMGLLTNL [SMMGLLTNL (SEQ ID NO: 16, ESR1)]: the peptide exchange yield is at least 75%.

For TLLGLAVNV [TLLGLAVNV (SEQ ID NO: 36, CHPT1)], the peptide exchange yield was at least 75%. The molecule KLLDMELEM [KLLDMELEM (SEQ ID NO: 39, FAH)] yielded a peptide exchange yield of at least 75%. Still for that read-out and setting: the result for GLVQSLTSI [GLVQSLTSI (SEQ ID NO: 8, ABCC11)] reads at least 75%. In turn, FLVEHVLTL [FLVEHVLTL (SEQ ID NO: 42, SLC39A6)] had a peptide exchange yield of at least 75%.

Take FIIPTVATA [FIIPTVATA (SEQ ID NO: 7, ABCC11)]: the peptide exchange yield is at least 75%. Molecule LLM[pT]VAGLKL [LLMUVAGLKL (SEQ ID NO: 38, PCNXL3)] returned a peptide exchange yield of at least 75%. The same measure, in the same setting: to SLLSEIQAL [SLLSEIQAL (SEQ ID NO: 35, AKAP9, PCNT)] belongs at least 75%; to GLLGFQAEA [GLLGFQAEA (SEQ ID NO: 24, MAGED1)], at least 75%.

In the next assay the target is T1, HLA-A*02:01. Put plainly: UV-ligand exchange, anti-β2m ELISA; grade of peptide exchange yield (legend: ≥50 = +++).
Excerpt: as §1, §2
Consider GLHSLPPEV [GLHSLPPEV (SEQ ID NO: 10, LRRC8E)], for which the peptide exchange yield lay in the range of 50 to 75%. Turning to YILLQSPQL [YILLQSPQL (SEQ ID NO: 18, MUC6)], the peptide exchange yield was in the range of 50 to 75%.

On to KMPEHISTV [KMPEHISTV (SEQ ID NO: 1, CILP)], for which the peptide exchange yield lay in the range of 50 to 75%.

The molecule FLDEEVKLI [FLDEEVKLI (SEQ ID NO: 43, FTL)] returned a peptide exchange yield of 50 to 75%.

Take SLADAVEKV [SLADAVEKV (SEQ ID NO: 23, CCDC122)]: the peptide exchange yield fell in the range of 50 to 75%.

In the case of ALEA[pT]QLYL [ALEAUQLYL (SEQ ID NO: 29, DEPDC4)], the peptide exchange yield is 50 to 75%. Take FMSKLVPAI [FMSKLVPAI (SEQ ID NO: 9, TPRG1)]: the peptide exchange yield lay in the range of 50 to 75%. The same measure, in the same setting: to SLAEPRVSV [SLAEPRVSV (SEQ ID NO: 27, FASN)] belongs 50 to 75%; to YIDGLESRV [YIDGLESRV (SEQ ID NO: 22, CREB3L4)], 50 to 75%; to SLAWDVPAA [SLAWDVPAA (SEQ ID NO: 26, FASN)], 50 to 75%. Regarding SLNDQGYLL [SLNDQGYLL (SEQ ID NO: 41, MCM8)], the peptide exchange yield fell in the range of 50 to 75%. In the case of GLVATLQSL [GLVATLQSL (SEQ ID NO: 32, IFI6)], the peptide exchange yield is 50 to 75%.

On to SLLTEPALV [SLLTEPALV (SEQ ID NO: 21, TBC1D9)], for which the peptide exchange yield was 50 to 75%.

ALAGSSPQV [ALAGSSPQV (SEQ ID NO: 2, CNTD2)] showed a peptide exchange yield of 50 to 75%. The molecule SLFPSLVVV [SLFPSLVVV (SEQ ID NO: 15, PLEC)] came in with a peptide exchange yield of 50 to 75%. ALTALQNYL [ALTALQNYL (SEQ ID NO: 6, TFAP2B)] yielded a peptide exchange yield of 50 to 75%.

FSFPVSVGV [FSFPVSVGV (SEQ ID NO: 20, DUSP4)] gave a peptide exchange yield of 50 to 75%. The same measure, in the same setting: to KQLELELEV [KQLELELEV (SEQ ID NO: 14, MUC6)] belongs 50 to 75%.

For a further assay, the target named is T1, HLA-A*02:01. Put plainly: UV-ligand exchange, anti-β2m ELISA; grade of peptide exchange yield (legend: ≥20% = ++).
Excerpt: as §1, §2
TIASSIEKA [TIASSIEKA (SEQ ID NO: 17, STPG2)] returned a peptide exchange yield of 20 to 50%. As to ALNPVIYTV [ALNPVIYTV (SEQ ID NO: 5, DRD4)], the peptide exchange yield is 20 to 50%. Consider GLSYIYNTV [GLSYIYNTV (SEQ ID NO: 31, COG6)], for which the peptide exchange yield is 20 to 50%. As for SLVEGEAVHLA [SLVEGEAVHLA (SEQ ID NO: 4, TFAP2E, TFAP2A, TFAP2B, TFAP2C)], the peptide exchange yield lay within 20 to 50%. For ILFDVVVFL [ILFDVVVFL (SEQ ID NO: 25, C4orf3)], the peptide exchange yield was in the range of 20 to 50%.

In turn, KAFPFYNTV [KAFPFYNTV (SEQ ID NO: 12, NAIP)] registered a peptide exchange yield of 20 to 50%. Regarding GLLPTSVSPRV [GLLPTSVSPRV (SEQ ID NO: 11, SCUBE2)], the peptide exchange yield was 20 to 50%. Consider ALEEQLHQV [ALEEQLHQV (SEQ ID NO: 19, KRT25, KRT28, KRT27)], for which the peptide exchange yield lay in the range of 20 to 50%. Same read-out and setting: the result for ILTELPPGV [ILTELPPGV (SEQ ID NO: 33, ZNF407)] reads 20 to 50%; that for KLYEGIPVL [KLYEGIPVL (SEQ ID NO: 13, NEK10)], 20 to 50%. Same read-out and setting: the result for FLSSEAANV [FLSSEAANV (SEQ ID NO: 30, TNFAIP2)] reads 20 to 50%.
